The record followed here is patent publication US20180030119A1.

Common to all, as to test: cell-based or functional assay
Assay [1] has as its target 26 RSV/B isolates (F protein on virus).
The target of assay [2] is 42 RSV/A isolates (F protein on virus).
Substrate in assay [3]: F protein of palivizumab-resistant clinical RSV isolate #20, on virus (RSV clinical isolate #20), P11209

B1: AR201 (antibody, V domains shown)
VH: LVQLRESGPGLVKPSQTLSLTCSVSGASINLYDYFWGWIRQAPGRGPEWIGYISGSTYYNPSLKRRATISVDTSKSQFFLELTSVTAADTAVYYCARDVGWGPQYYYGLDVWGQGTTVTVSS
VL: DLVLTQSPGTLSLSPGERATLSCRASHSVQSTSLAWYQQKRGQAPRLLIYGGSSRVTGIPDRFSGSGSGTDFTLTISRLEPEDFAVYYCQQSDRSPPITFGQGTRLEMK
B1: in assay [1], the Log10 PFU/0.2 mL after 20 ug/ml antibody, plaque reduction assay on HEp-2 cells, mean (Log10 PFU/0.2 mL) is -0.52 and the Log10 PFU/0.2 mL after 20 ug/ml antibody, plaque reduction assay on HEp-2 cells, median (Log10 PFU/0.2 mL) was -0.6. In assay [2], this molecule yielded a Log10 PFU/0.2 mL after 20 ug/ml antibody, plaque reduction assay on HEp-2 cells, mean (Log10 PFU/0.2 mL) of -0.42 and a Log10 PFU/0.2 mL after 20 ug/ml antibody, plaque reduction assay on HEp-2 cells, median (Log10 PFU/0.2 mL) of -0.6. Also, the IC50 of neutralisation, infectivity assay on Hep2 cells in assay [3] came out at 1.71 µM.
